Assay results published in the nanobody polyreactivity screen of Harvey et al. (2022).

Assay: yeast display, Sf9 membrane polyspecificity reagent, FACS + sequencing; frameworks hold sequencing errors
Outline: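 In a synthetic yeast display library (Saccharomyces cerevisiae BJ5465), nanobody expression was induced with galactose for 36–48 hours. FACS gates were set low and high (top ~1%) using anti-HA fluorescence for expression and streptavidin fluorescence for binding of the Sf9 membrane reagent. Each polyreactivity label is drawn from the gate of origin.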

Sequence	polyreactivity (PSR sort gate)
QVQLVESGGGLVQAGVSLRLSCAASGRTFRGYAMGWYRQAPGKERELVAAISSGGSTYYADSVKWRFTISRDNSKNTVYLQMNSLKPEDTAVYYCARAVGNYRTLEFDYWGQGTHVTVSS	low polyreactivity
QVQLVESGGGLVQAGVSLRLSCAASGSIFSYNAMGWYRQAPGKERELVAAISRCSGSTYYADSVKGRFTISRDIAKNTVYLQMNSLKPEDTAVYYCAGRPKTIPSYYLGYHVRFDYWGQGTQVTVSS	low polyreactivity
QVQLVESGGGLVQAGVSLRLSCAASGSTFVSNAMGWYRQAPGKERELVAAISWSGVRTYYADSVKGRITISRDNAKNTVYLQMNSLKPEDTAVYYCSKRIYGSRSSRFNYWGQGTQLTVSS	high polyreactivity
QVQLVESGGGLVQAGVSLRLSCAASGSTFYWYAMGWYRQAPGKERELVAAITYSSGRTYYADSEKGRFTISRDNAKNTVYLQMNSLKPEDTAVYYCGWSALNGYDYWGQGTQVTVSS	high polyreactivity
QVQLVESGGGLVQAGVSLRLSCAASGTIFYTYTMGWYRQAPRKERELVATIRSTGSTDYADSVKGRFTISRDNAMNTVYLQMNSLKREDTAVYYCNADRFGDYDYWGQGTQVTVSS	low polyreactivity
QVQLVESGGGLVQAGVSLRLSCAAYGFTFTGYAMGWYRQAPGKEMEFVAAITTGGGSTYYADSVKGRFTISRDNAKNTVYFQMNSLKPEDTAVYYCAKSRQYIGGFDYWGQGTQVTVSS	high polyreactivity
QVQLVESGGGLVQAGVSLRLSCASTGLTFRYYAMGWYRQAPGKERELVAAISSGTGTYYADSVKGRFTISRDNAKNTVYLQMNSLKPEDTAVYYCAAVFFRARVIRGYNYWGQGTQVTVSS	high polyreactivity
QVQLVESGGGLVQAGVSLRLSCVASGLTQPYAMGWYRQAPGKESELVAGISWRGASTYYADSVKGRFTISRDNAKNTVYLQMNSLKPEDTAVSYCAARSTIQRRGYYGYRVGRSEYGYWGQGTQVTVSS	low polyreactivity
QVQLVESGGGLVQARGILRLSCAASGSTFYTYTAMGWYRQAPGKERELVAAITWRGGSTYYADSVKGRFTIARDNAKNTVYLQMNSLKPQDSAVSSCAATLNRYGYDYWGQGTQVTVSS	high polyreactivity
QVQLVESGGGLVQARGSLRLICAASGRTFEHNSMGWYRQAPGKERELVARITSGGRTYYADSVKGRFTISRDNAKNTVYLQMNSLKPEDTAVYYCATVGRGYDERHNYWGQGTQVTVSS	high polyreactivity
QVQLVESGGGLVQARGSLRLICAASGSTFWYYAKGWYRQAPGKERELVAAITSGDSTYYADSVKGRFTISRDNAKNTVYLQMNSLKPEDTAVYYCAADLPWEDGYYYYSGYTEYDYWGQGTQVTVSS	low polyreactivity
QVQLVESGGGLVQARGSLRLSCAASGFIFPSYAMGWYRQAPGKERELDAAITWNGGSTYYADSVKGRFTISRDNAKNTVYLQMNSLKPEDTAVYYCNKYYYYRDYGYWVQGTQVTVSS	high polyreactivity
QVQLVESGGGLVQARGSLRLSCAASGGIFYRNAMGWYRQAPGKERELVAAITQSGGRTYYADSVKGRFTISRDNAKNTVYLQMNSLKPEDTADYYCAKSRYTPTGSLQLNYWGQGTQVTVSS	high polyreactivity
QVQLVESGGGLVQARGSLRLSCAASGITFRYYAMGWYRQAPGKERELVASISWSGGSTYYADSVKGRFTISRDNAKNTVYLQMNSLKPEDTAVYYCAADILTFWYRYYYWGQGTQVTVSS	high polyreactivity
QVQLVESGGGLVQARGSLRLSCAASGLTFITNTMGWYRQAPGKERELVAVISYSGTSTYYADSVKGRFTISRDYAKNTVYLQMNSLKPEDTAVYYWDASYLGSYRYSYYYWGQGTQVTVSS	high polyreactivity
QVQLVESGGGLVQARGSLRLSCAASGLTFRWYSMGWYRQAPGKERELVAAISSGGRTYYADSVKGRFTISRDNAKNTVYLQMNSLKPEDTAVYYCSKRTLDYGFGSYGREYWGEGTQVTVSS	high polyreactivity
QVQLVESGGGLVQARGSLRLSCAASGRIFPVNTMGWYRQAPGKERELVAAITSGGGTYYADSVKGRFTISRDNAKNTVYFQMNSLKPEDTAVYYWTAPEGRKPYDSWGQGTQVTVSS	low polyreactivity
QVQLVESGGGLVQARGSLRLSCAASGRIFSKYAMGWYRQAPGKERELVAAISSSGVSTYYADSVKGRFTISRDNAKNTVYLQMNSLKPEDTAVYYCYKRTSPKRFDYWGQGTQVTVSS	high polyreactivity
QVQLVESGGGLVQARGSLRLSCAASGRIFTTYAMGWYRQAPGKESELVAAISQTGGSTYYADSVKGRFTISRDNAKNTVYLKMNSLKPEDTAVYYCNAGPAGYYDDDYWGQGTQVTVSS	low polyreactivity
QVQLVESGGGLVQARGSLRLSCAASGRILKRYAMGWYRQAPGKERELVAAISYGGGSTDYADSVKGRFTISRDNAKNTVYLQMNSLKPEDTAVYYCAAKVRYYLSLRGSTTRRDDYYWGQGTQVTVSS	low polyreactivity

Sequence	polyreactivity (PSR sort gate)
QVQLVESGGGLVQARGSLRLSCAASGSIFGSYAMGWYRQAPGKDSELVADISCGGSTNYADSVKGRFTISRDNAKNTVYLQMNSLKPDDTAVYYCNADDPAGYLYLWGSWLESDYWGQGTQVTVSS	low polyreactivity
QVQLVESGGGLVQARGSLRLSCAASGSTFAYNAMGWYRKAPGKERELVADITSTGTSTYADSVKGRFTISRDNAKNTVYLQMNSLKPEDTAVYYCNADYDSTYVGYDYWGQGTQVTVSS	low polyreactivity
QVQLVESGGGLVQARGSLRLSCAASGSTFDSNAMGCYRQAPGKERELVAAITRGGSTNYADSVKGRFTISRDNAKNTVYLQMNSLNPEDTAVYYCAAASETLGSATYGSGYDYWGQGTQVTVSS	low polyreactivity
QVQLVESGGGLVQARGSLRLSCAASGSTFGRYAMGSYRQAPGIERELVAAISLGTTTNYADSVKGRFTISRDNAKNTVYLQMNSLKPEDTAVSYCAADQPSKRYYYWGQGTQVTVSS	low polyreactivity
QVQLVESGGGLVQARGSLRLSCAASGSTFIPNTMGWSRQAPGKERELVAAISRRGGSKNYADSVKGRFTISRDNAKNTVYLQMNSLNPEDTAVYYCAAASPRRYRYDYWGQGTQVTVSS	high polyreactivity
QVQLVESGGGLVQARGSLRLSCAASGSTFSVYAMGWYRQAPGKERELVAAITDVDNTYYADSVKGRFTISRDNAKNTVYLQRNSLKPEDTAVYYCDARYYQYYEYYHWGQGTQVTVSS	low polyreactivity
QVQLVESGGGLVQARGSLRLSCAASGSTFYPYAMGWYRQAPGKERELVAAISSGGSTSYADSVKGRFTISRDNAKNTVYLQMNSLKPEDTAVYYCNASSPGAVPVYDYDYWGQGTQVTVSS	low polyreactivity
QVQLVESGGGLVQARGSLRLSCAAYRITFGWYAMGWYRQAHAKERELVASISSSGSTNYADSVKGRFTISRDNAKNTVYLQMNSLKPEDTAVYYCNKDYRRRHYYIYVIEGDYWGQGTQVTVSS	low polyreactivity
QVQLVESGGGLVQARGSLRLSCPASGITFARYAMEWSRQAPGKERELVAAISYGGGSTYYADSVKGRFTISRDNAKNTVYLQMNSLKPEDTSVYYCNNVPRKSYGYWGQGTQVTVSS	high polyreactivity
QVQLVESGGGLVQARGSLRLSCPASGSIFSLNAMGWYRQAPGKERELVASISRGGSTNYADSVKGRFTISRDNAKNTVYLQMNSLKPEDTAVYYCAAYWYYYTKSQSSYRFDYWGQGTQVTVSS	low polyreactivity
QVQLVESGGGLVQARGSLRLSSAASGYIFYHYAMGWYRQSPGKERELVAAISSGGGSTYYADSVKGRFTISRDYAKNTVSLQINSLKPEDTAVYYCNAVRYYTKYDYWGQGTQVTVSS	high polyreactivity
QVQLVESGGGLVQARGSLRLTCAASGSTFSENAMGWYRQAPGKERELVAAISRGGGRTYYADSVKGRFTISRDNAKNTVYLQMNSLKPEDTAVYYCNAGLPAGNHGYDYWGQGTQVTVSS	high polyreactivity
QVQLVESGGGLVQARVSLRLICAASAIIIYDNAIGWYRQAPGKESEFVATINYSGDSTYYADSVKGRFTISRDNANNTVYLQMNSLKPEDTAVYYCATDGAWQYYWVYSHVYWGQGTQVTVSS	low polyreactivity
QVQLVESGGGLVQAVGSHRLSCAASGFIFTSYAMGWYRQAPGKERELVAAITRSGGRTYYADSVKGRFTISRDNAKNTVYLQMNSLKPEDTAVYYCAAVTFYQSPARGYWGQGTQVTVSS	high polyreactivity
QVQLVESGGGLVQAVGSLRLSCAASGFIFVGYAMGWYRQAPGKERELVAAITGGGTTYYADSVKGRFTISRDNAKNSVYLQMNSLKPEETAVYYCAKDRPRKDTQRWRYGHWGQGTQVTVSS	high polyreactivity
QVQLVESGGGLVQAVGSLRLSCAASGFILGGYALGWYRQAPGKERELVAAISFSTVATYYADSVKGRFTNSRDNAKNTVYLQMNSLKPEDTAVYYCAARRLGYYRKVKELDYWGQGTQVTVST	high polyreactivity
QVQLVESGGGLVQAVGSLRLSCAASGHIFCYYTMGRYRQAPGKERELVAGITIGGSTNYADSVKGRFTISRDNAKNTVYLQMNSLKPEDTAVYYCNVVKYVYIYSYWEYYYWGQGTQVTVSS	low polyreactivity
QVQLVESGGGLVQAVGSLRLSCAASGIIFDSYAMGWYRQAPGKERELVAAITSRGGRTYYADSVKGRFTISRDNAKNTVYLQMNSLKPEDTAVYYCAADDGWIEPVYGYYEHEYWGQGTQVTVSS	low polyreactivity
QVQLVESGGGLVQAVGSLRLSCAASGRIFDTYVMGWYRQAPGKEREMVAAISGSGGSTYYADSVKGRFTISRDNAKNTVYLQMNSLKPEDTAVYYCSAARRYYAYRYDYWGQGTQVTVSS	high polyreactivity
QVQLVESGGGLVQAVGSLRLSCAASGRIFYSYAMGWYRQAPGKERELVAAITRGGSTSYADSVKGRFTISRDNAKNTVYLQMNSLKPDDTAVYYCATRQFYSYWKYYYWGQGTQVTVSS	high polyreactivity
